Laboratory results: patent publication US20230034906A1 (TRINOMAB BIOTECH, published 2023)

How the values were obtained:
[1] = target: T1, gB_Towne protein with N302 mutated into glutamine (human cytomegalovirus, strain Towne, UniProt F5HB53 25-700); assay: indirect ELISA, antibody titrated on gB glycoprotein mutant
T1 chain: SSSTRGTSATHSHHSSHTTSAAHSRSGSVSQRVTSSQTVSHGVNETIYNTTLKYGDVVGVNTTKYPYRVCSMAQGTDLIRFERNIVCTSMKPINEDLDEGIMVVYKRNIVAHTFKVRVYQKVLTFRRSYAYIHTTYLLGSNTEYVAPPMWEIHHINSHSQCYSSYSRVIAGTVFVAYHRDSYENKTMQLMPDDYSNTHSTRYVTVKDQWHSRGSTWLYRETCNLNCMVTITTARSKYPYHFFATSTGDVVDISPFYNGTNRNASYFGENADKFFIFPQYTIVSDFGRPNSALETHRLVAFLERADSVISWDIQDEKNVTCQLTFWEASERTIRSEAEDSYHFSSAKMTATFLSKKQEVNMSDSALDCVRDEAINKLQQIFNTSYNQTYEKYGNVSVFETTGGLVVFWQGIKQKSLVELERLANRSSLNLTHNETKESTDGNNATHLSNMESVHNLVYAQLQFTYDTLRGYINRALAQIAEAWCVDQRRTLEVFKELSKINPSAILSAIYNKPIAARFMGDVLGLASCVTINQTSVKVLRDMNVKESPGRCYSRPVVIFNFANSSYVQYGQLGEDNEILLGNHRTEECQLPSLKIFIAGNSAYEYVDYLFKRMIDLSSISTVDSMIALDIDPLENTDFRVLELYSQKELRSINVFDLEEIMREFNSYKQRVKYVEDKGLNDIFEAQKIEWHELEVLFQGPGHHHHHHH

[2] = target: T2, gB_Towne protein with N456 mutated into glutamine (human cytomegalovirus, strain Towne, UniProt F5HB53 25-700); assay: as above
T2 chain: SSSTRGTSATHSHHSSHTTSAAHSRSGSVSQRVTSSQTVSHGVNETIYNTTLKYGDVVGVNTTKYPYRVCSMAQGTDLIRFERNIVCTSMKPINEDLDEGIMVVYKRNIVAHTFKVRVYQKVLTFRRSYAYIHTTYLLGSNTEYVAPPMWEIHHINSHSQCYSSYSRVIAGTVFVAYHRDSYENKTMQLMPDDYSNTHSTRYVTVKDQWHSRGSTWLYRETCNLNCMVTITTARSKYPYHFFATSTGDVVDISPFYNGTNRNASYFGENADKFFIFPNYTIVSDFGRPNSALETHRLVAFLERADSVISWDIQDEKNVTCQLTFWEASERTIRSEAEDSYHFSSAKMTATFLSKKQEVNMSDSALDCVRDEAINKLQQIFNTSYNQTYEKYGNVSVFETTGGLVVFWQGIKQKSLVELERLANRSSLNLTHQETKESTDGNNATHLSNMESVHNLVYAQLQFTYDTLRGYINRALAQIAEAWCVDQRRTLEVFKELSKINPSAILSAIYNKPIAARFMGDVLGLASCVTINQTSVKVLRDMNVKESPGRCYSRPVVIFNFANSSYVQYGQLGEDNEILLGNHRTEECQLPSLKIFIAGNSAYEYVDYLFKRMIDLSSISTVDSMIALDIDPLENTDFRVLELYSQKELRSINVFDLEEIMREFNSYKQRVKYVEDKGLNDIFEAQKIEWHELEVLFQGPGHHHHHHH

[3] = target: T3, gB_Towne protein with N447 mutated into glutamine (human cytomegalovirus, strain Towne, UniProt F5HB53 25-700); assay: as above
T3 chain: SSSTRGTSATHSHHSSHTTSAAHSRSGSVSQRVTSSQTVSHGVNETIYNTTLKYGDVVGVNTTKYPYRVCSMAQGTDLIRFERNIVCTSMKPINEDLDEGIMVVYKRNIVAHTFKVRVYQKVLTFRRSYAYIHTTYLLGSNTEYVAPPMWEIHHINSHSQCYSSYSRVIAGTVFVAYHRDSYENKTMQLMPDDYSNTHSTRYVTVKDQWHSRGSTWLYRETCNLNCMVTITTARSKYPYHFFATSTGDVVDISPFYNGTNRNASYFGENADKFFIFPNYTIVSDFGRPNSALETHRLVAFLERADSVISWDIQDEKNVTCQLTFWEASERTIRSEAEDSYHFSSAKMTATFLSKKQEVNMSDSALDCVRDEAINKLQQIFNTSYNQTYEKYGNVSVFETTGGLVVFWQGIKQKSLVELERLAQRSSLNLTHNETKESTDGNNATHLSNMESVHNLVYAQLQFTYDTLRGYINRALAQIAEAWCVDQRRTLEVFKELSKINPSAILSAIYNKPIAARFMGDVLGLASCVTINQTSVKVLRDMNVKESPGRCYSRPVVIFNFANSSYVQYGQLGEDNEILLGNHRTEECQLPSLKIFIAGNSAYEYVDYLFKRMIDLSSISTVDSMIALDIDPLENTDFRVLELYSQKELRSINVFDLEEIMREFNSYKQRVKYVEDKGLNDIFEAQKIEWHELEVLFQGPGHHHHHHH

[4] = target: T4, homologous sequence of gB glycoprotein of 56 virus strains (gB_Con. Strain) (human cytomegalovirus (homologous …, UniProt P06473 25-699)); assay: ELISA, HEK293 culture supernatant on gB
T4 construct: C-terminal tags are part of the entry
T4 chain: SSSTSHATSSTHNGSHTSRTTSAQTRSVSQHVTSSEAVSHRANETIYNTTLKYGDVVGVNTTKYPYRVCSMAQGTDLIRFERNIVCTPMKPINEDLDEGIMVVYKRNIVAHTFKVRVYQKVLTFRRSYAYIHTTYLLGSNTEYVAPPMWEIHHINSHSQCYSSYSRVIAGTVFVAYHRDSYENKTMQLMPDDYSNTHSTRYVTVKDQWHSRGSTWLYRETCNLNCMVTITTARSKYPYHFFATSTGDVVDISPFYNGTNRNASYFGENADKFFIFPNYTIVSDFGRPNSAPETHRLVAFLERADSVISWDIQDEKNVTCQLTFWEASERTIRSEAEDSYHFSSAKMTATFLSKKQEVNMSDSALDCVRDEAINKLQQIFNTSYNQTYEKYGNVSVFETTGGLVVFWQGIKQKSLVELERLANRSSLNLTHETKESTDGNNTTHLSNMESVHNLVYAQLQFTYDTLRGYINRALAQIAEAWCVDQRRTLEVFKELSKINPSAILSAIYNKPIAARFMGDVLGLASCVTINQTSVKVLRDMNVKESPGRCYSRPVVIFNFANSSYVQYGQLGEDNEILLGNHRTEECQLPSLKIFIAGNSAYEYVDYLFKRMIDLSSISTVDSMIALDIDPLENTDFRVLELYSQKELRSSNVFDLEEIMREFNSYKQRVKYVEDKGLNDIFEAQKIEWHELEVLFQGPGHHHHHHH

Measured: binding result

B1: TRN1019 (antibody, V domains shown)
VH: QVQLVQSGAEVKKPGESLKISCKGSGYTFTNYWIGWVRQMPGAGLEWMAIIFPRDSYSAYSPSFQGRVTISVDKSISTAYLHWSSLEASDTAVYYCAIYNDLRSGNSWGQGTPLIVSS
VL: DIQMTQSPSSLSASVGDRVTITCRASQSITKYLNWYQQKPGRAPKLLIHTTSTLQSGVPSRFSGSGSGTDFTLTISSLQLEDFGTYYCQQSFSTLWTFGQGTKLDIKR
notes: Fully human antibody; kappa light chain
binds: all assays above
